# Results reported in the DeepSol protein solubility set.
# Assay: soluble on expression in E. coli; label from the status in PepcDB or PDB records
row,Sequence,soluble on expression in E. coli
1,GSHMVKDTLFSTPIAKLGDFIFDENVAEVFPDMIQRSVPGYSNIITAIGMLAERFVTADSNVYDLGCSRGAATLSARRNINQPNVKIIGIDNSQPMVERCRQHIAAYHSEIPVEILCNDIRHVEIKNASMVILNFTLQFLPPEDRIALLTKIYEGLNPNGVLVLSEKFRFEDTKINHLLIDLHHQFKRANGYSELEVSQKRTALENVMRTDSIETHKVRLKNVGFSQVELWFQCFNFGSMIAVK,soluble
2,MGSDKIHHHHHHMKKTPKLSVQLWSVKDAINQDFNGTLKTLSNMGFDGVEFAGELGSYANDAKALKLFLDSIDLKASGAHVSFEQLDQDNFQKTVDFYHQLQVDTLIIGLDDRSWHPQGIEEVVKLLNQLDTKLDPYNIKTGFHNHEHEFDNFKGTTYWDYLAMNTKDSVVLQQDVGWTTYAGKDAVEYVYKYPNRSFTTHYRVCIPEGVKGKQPIIGRDTIDWLRLLKANINVGGTKWIVVEQDVYPNGMSSLAAVALSKNGLEQYIDKL,not soluble
3,RALIGRLPDGRADLLENFAAGPGLAQRFGERYPEHAGRDLRFIMELYHAGDTHARDYITATLAAAGETIAGFASAIDVDAIIIGGGVGNIGDAIIKPFAHGFAAHAIPPLDTIPIRQAQLGTDAPIVGAAHLGHSAIE,not soluble
4,MRNLSDRAKFESMINSPSKSVFVRNLNELEALAVRLGKSYRIQLDQAKEKWKVK,not soluble
5,MSRETNFNGTKRKRSDVAEKVAQRWKSVRYSAEMENMAPVNSNNDSDDCVIVSESKIIDLTNQEQDLSERIETNDTAKGAVFKLMKSDFYEREDFMGEVEDMITLKDIFGTETLKRSILFSFQYELDFLLRQFHQNVENITIVGQKGTIMPIEARAMDATLAVILKKVKLIEITMPPFASHHTKLIINFYDNGECKIFLPSNNFTSMETNLPQQVCWCSPLLKIGKEGLPVPFKRSLIEYLNSYHLKDIDELITKSVEEVNFAPLSELEFVYSTPSKFQSSGLLSFYNKLEKLSAGTSASDTAKHYLCQTSSIGTSLSRARDENLWTHLMIPLFTGIMSPPAKDTAGRKKAEILPTNSLINEYSQRKIKPYIIFPTEQEFVTSPLKWSSSGWFHFQYLQKKSYYEMLRNKFKVFYKQDPAMVTRRRGTTPAHSKFYMHCATNSAGPCDASQVFKELEWCLYTSANLSQTAWGTVSRKPRNYEAGVLYHSRRLANTRKVTCRTFTRDRRGCAGNPTHVAVPFTLPVIPYDLAEDECFCLARHEND,soluble
6,GMHFSKEHINALETRTRAHFINSLSGFKSANLIGTQDRQGNTNLSIVSSVIHLGANPPLMGMIIRPHSVPRHTFENIMQTGLYTINHVNQSIYEQAHQTSARYDKDESEFEATGLTPEYLSDFCAPFVKESRLKYSVKLVEHQHLAINGTEFVIGEIVDVYVDDNAVQTDGFIDLQAIDTVAISGLDCYYTGDKLARLPYAKK,soluble
7,MGSDKIHHHHHHMSELTLLADADERGRRYLAGNAQRRVFPDADALSALARFNEALPQQGFSPEDTLTLLDEVGSPATTASNGPNYFGFVIGAALPIAAASERLMIAWDQCASTFDNSPVSATLERLASRWVLDILKLPKESAVGFGTSATACTLSCLVAARRAMLAKQGWDFDNDGLIGAPEIKVVISALTHITVKKALRVLGFGLRHIIVAPVNAFGQIDVTQLPPLDDRTILCLQAGEVNTGEFDDFAQIIPIAKAAGAWVHVDGAFGLWARASSHAALTESIELADSWTTDAHKWLNTPYDCAMAICRNADALAEAMNADAVYSSAARDAQKNLTLEFSRRPRGIPVWAVLRTLGRDGVAEMIERHCRQATLIADGLRHAGFEVLNRVVLNQVLLRGETDSQTTAIREALQASGKAWFGGTVWQGRPALRISVSSWRTQDDNVQALIALLTEIKAKTPR,not soluble
8,MAFNTRANAEKYLATCYNFVPAAANLDHNSGLICGGEMWYLKPESHYYKNITSFNIARGMQNSNDPLLNYWDGGQGGYNIFRGIHECNIFIDNIDRVPDMRMEEKNKWKAEVMTLKAYYIYYLMLHYGPIPLLKENISVEADLDMMQLERETINDIVTYTTDLLDEAMNIPSGLTFNVTSPRTELGRITLPIAKAIKAKLLILAASPLFNGNTMYAEFVNSEGIPFFDQEYKKEKWEAAAAACLDAINTAHEAGASLYKFDEKLNYTPSSTLQQELTLRNTITGRFNSEIIWALGSNATDGIQNLCQAHLTSYSLGNRMIRSCSQLVPSLEIVEQFYTANGVPMDEDKDYEYENRYKLTTTPEDDPIHFTPNYTTIKMHLNREPRFYAYIGFDGGKWFSIECCNDNETSSYPIKSKKGDIAGVSDELYSPTGYFTKKLVSYQNVNTSATNINYVYSFPIIRLSDLYLLYAEALNELNETPTTDVYYYVQQVRNKAGLDEGGSLVNTWRNHSNRPDKPTTQRGMREIIQKERMIELAFEGHRYHDVRRWKLGSTYLNTQIKGWSVLEQDPEYFYNVRVLFTRKFMPRDYLWPIKTNSINRNPKLVQNPQW,not soluble
9,MSLIRIDFSQLHQAREDAAAAMPSIAGKKILMGFWHNWPAGAADGYQQGSFANIALEDVPSEYNVVAVAFMKGRGIPTFQPYNLSDAEFRRQVGVLNAQGRAVLISLGGADAHIELHAGQEQALAAEIVRLVETYGFDGLDIDLEQSAIDLADNQRVLPAALKLVREHYAGQGKHFIVSMAPEFPYLHKNGKYVPYLQALEGVYDFIAPQYYNQGGDGLWVQEANGGKGAWIAQNNDAMKEDFLYYLTESLATGSRDFVRIPAQRLAIGLPSNVDAAATGYVIDPAAVSNAFRRLEAAGHAIKGLMTWSVNWDDGLNKRGERYNWEFRKRYASLIHDGEGGDQRPAAPQGLRLLERGETSLVLAWNASSGQRPIDYYSLYRDGAMVGQSAALGSTDSGLTADTRYSYFVTATDTQGNQSLPSEGLEVSTSGGAVDPQFPQWRENQAYRVDDGVTYEGLRYLCLQAHTSNSGWTPPVAFTLWREGGSHHHHHH,soluble
10,MFFMYFTNYGYRLNQIKKGSDQHWLFLPGGPGLGSEYLASFCDKLTLQGTVSLVDFPKDGNNSEGQLDFVSWQEGLISLLKSLNKPILVTHSFSGMFTLNFPEIENHLSGLVLMNTTTTNSFFQHVNEMRQKHNLPDLVPAASQYHLYPSNETYKKFWDTYKHYCFTQEELPIGEQMMELFAYNNESYHYAIEHFYNDFHYKWHPQTIPTMTIASELDYICPPAIFIQDKNFQCQNVINKVIYKAGHCPWILHLEQVQKCFDEFSGMIQEINIERIL,not soluble
11,MRFLSLLCPPVERAAVMRPPYTTHLQRVPLMRKSLLALSLLAATSAPVLAADYSDGDIHKNDYKWMQFNLMGAFDELPGKSSHDYLEMEFGGRSGIFDLYGYVDVFNLATNKSSDKVGDPKIFMKFAPRMSLDAFTGVDMSFGPVQEVYVASLFEWDGTDFKTNAFSVNNQKIGLGSDVMVPWFGKVGLNLYGTYDGNRKDWNGFQISTNWFKPFYFFENGSFISYQGYIDYQFGLKDEYSTASNGGAMFNGIYWHSDRFAVGYGLKGYKDVYGIKDTDGFKSTGFGHYVAVTYKF,not soluble
12,MGSDKIHHHHHHMRKWISYPHREGTISRQAHADFPAEAIYEREVGRSGFFGPATHLHHKHPPTAWSAWEGPLRPRAYDLNELPHGTPAPWDAPLVLHNAQCKLRIWRCDQAMTQLSRNADGDDLLFIHGGSGELFCDYGHLSYRDGDYILVPRSTSWRIEPASPTTMLLIETSNGAYQLPEKGLVGPHAIFDEAVLDVPAIDDAFKAQQTEDEWQVVIKRRGALSTVTYPYNPLDAIGWHGNLSVARVNWRDIRPLMSHRYHLPPSAHTTFVADGFVICTFVPRPIESDPGALKVPFYHNNDDYDEVIFYHAGDFFSRDNIKPGMLTFHPAGFTHGPHPKAFAKAMTDPKTFTDEVAVMIDARDALEQGPGLAGVEWQGYVDSWKPKQA,not soluble
13,MCTGLALETKDGLHLFGRNMDIEYSFNQSIIFIPRNFKCVNKSNKKELTTKYAVLGMGTIFDDYPTFADGMNEKGLGCAGLNFPVYVSYSKEDIEGKTNIPVYNFLLWVLANFSSVEEVKEALKNANIVDIPISENIPNTTLHWMISDITGKSIVVEQTKEKLNVFDNNIGVLTNSPTFDWHVANLNQYVGLRYNQVPEFKLGDQSLTALGQGTGLVGLPGDFTPASRFIRVAFLRDAMIKNDKDSIDLIEFFHILNNVAMVRGSTRTVEEKSDLTQYTSCMCLEKGIYYYNTYENNQINAIDMNKENLDGNEIKTYKYNKTLSINHVN,soluble
14,MGSDKIHHHHHHAQKKVIIEDEEPNSVMFVSTNKAGDEIIRIMNETRLPRFHEPKAPRFVLTDRQGKFALGIGGYVRATAEYDFGGIVKDVDFYPALIPNKGSADRARNQFQMDISTSTLFLKLVGHTKRLGDFVVYTAANFRGDGKTFELQNAYATFLGFTLGYSYGNFMDLAALPPTIDFAGPNGSAFYRTTQLSYMCDKLKNWKFGVGVEMPSVDGTTNQYLTINTQRMPDFTASAQYNWNANSHLKLAAIVRSMTYSSSVDNKAHSKAGYGLQASTSFNVTPKWQVYGQVNYGKGIGQYLNDLSNLNVDIVPNPEKEGRMQTLPMLGWFAGLQYNISKNVFVSGTYSLSRLYSEHTYPSDEPDMYRKGQYLVANLFWNVTSNLQVGAEYLRGWRTDFSSNTRHANRMNALVQYSF,not soluble
15,MSLTPRDHTLILIDYQSQMAFATHSIDIPTLRNNAGLVASAAAGFGVSAILTTVAEKSFSGPMFDEVTAPFPDLRMLDRTSMNTWEDAAVIDRVNQIGKGRIVLAGLWTSVCIVGPALSALDQGFEVYVIADACGDISAEAHERAMQRMVQAGARPITSLQYLLELQRDWARTDTYELTTGIAAKLGGGYGLGIRYAKTMFGGHEGHHHHHH,soluble
16,MGSDKIHHHHHHNSDVPENTHLVSKEVQAAFNAKYPQAKDVEWELKGDYAVADFYWDGGEHSAWFNPLSAAWYMTETDVRYENLPEPVLAAHKAGKYADWRVDDVDKLTREGMETLYVIEVEKGESELDLFYSSTGILVKTVVDTGHEEDYDDYLPQPDANGIIAIVKQKYPNATIVEIEREKGLQEVTILDENKEKEVYFNERNEWMGTSWDVQVANLPEAVKKSVMEKYSDYVIDDADYVVTPDNEWYILDLENKQIDKELKVKVDKDGVWL,not soluble
17,MSLSTPPRAFSLVETGEALTRGDEPSPTRSAVLTRLSHSHMRFGTFQRLAYLDRRDLMVQLVDHVIESYFPDLADESDRPAVLMRAVVSASARLLSRWMSAGFVHGVLNTDNMVVTGESFDYGPWRFLPRNDPNFVAAYFDHAGLYSFGRQPEAVFWNLQQLAGCLSLVTDQAALLAALNSFSDLYRAALRGAMLDRLGLKSRGAEADIALVNTAFRALAEGGETLRWEPFFFDWFGGAASEERALRGPRAGLYAGEAFLDLRRALADFDPDRPERLAHPAFARPEPEELIIDEVEALWSPIADADDWGPLNAKLARIDAAREAYALGQAQIEGHHHHHH,soluble
18,MSLSTFPTALAVAVSVPSSLTPQDFSWRKFKLKRNVKISRNFEFAISCSGDRAASIGFDVPFPKDYTELLQQVFILFAFSPLKIGGWGSRNRGGITREIKAKEATELALKDNRQLMEIEFPTAGLGSVPGDGEGGIEMTGSIQLIREFCDLLVIPEKATKTRIFFPEANEVKFARQSIFGGASFKLDYLTKPSFFEDFGFTEKVKMADRVKPEDELFIVAYPYFNVNEMLVVEELYQAAVLNTSRKLIIFNGELDRIRSDYPPFFYPKLAALSKTLFPKMETVYYIHNFKGRNGGVLFRCYPGPWKVFRRVGSTNICLHQQESMPSLKEVALDILPSAEGHHHHHH,not soluble
19,VGSIQPDFLGSVNSSLRYKNWTLRASMDMRFGGMVAIYGSHYGTAYGYLKSSMNGVDAENGGITYTSIWDGLTYDDGIIPEAIMPGGQTINTPSGTYTIAEGGELYADLVNRGIVDPQHASSWNYWNNSWGRAAVWKNNDWFHELNYIALREVSLSYRMPGKIADKIGASGINLTLTGRNLGYLLNSLPNNFNPESLRGTQAGQFMIRSVSPYTASYTFTINATF,not soluble
